From article PMC11014985, “TCTP regulates genotoxic stress and tumorigenicity via intercellular vesicular signaling”

T1: TCTP (UniProt P13693 1-172)
T1 sequence: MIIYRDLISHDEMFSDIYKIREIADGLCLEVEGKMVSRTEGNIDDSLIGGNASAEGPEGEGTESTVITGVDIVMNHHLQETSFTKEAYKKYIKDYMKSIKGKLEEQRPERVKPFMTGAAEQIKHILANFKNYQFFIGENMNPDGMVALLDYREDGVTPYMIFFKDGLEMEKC

B1: RNA01 (ssRNA)
RNA: UCAUACUUUUCUUUUCUUUUCCAUC
B2: let-7c-5p (ssRNA)
RNA: UGAGGUAGUAGGUUGUAUGGUU

Experiments:
[1] = molecular target: T1, TCTP; assay: EMSA; 50 nM RNA, increasing TCTP; pH 7.5; EMSA: RNA01 at pH 7.5, 6% native PAGE at 4 C; let-7c-5p 50 nM, proteins preincubated 20 min then 25 min on ice, ATP or AMP-PNP (5 mM), NativePAGE 3-12% Bis-Tris; details: protein: recombinant; label: 5'-Cy5; single strand
[2] = molecular target: Ded1 (DEAD-box helicase) (yeast, UniProt P06634 1-604); assay: EMSA; 50 nM RNA; positive control; AMP-PNP; EMSA: RNA01 at pH 7.5, 6% native PAGE at 4 C; let-7c-5p 50 nM, proteins preincubated 20 min then 25 min on ice, ATP or AMP-PNP (5 mM), NativePAGE 3-12% Bis-Tris; details: protein: recombinant; label: 5'-Cy5; single strand
Sequence of Ded1 (DEAD-box helicase) (P06634 whole entry): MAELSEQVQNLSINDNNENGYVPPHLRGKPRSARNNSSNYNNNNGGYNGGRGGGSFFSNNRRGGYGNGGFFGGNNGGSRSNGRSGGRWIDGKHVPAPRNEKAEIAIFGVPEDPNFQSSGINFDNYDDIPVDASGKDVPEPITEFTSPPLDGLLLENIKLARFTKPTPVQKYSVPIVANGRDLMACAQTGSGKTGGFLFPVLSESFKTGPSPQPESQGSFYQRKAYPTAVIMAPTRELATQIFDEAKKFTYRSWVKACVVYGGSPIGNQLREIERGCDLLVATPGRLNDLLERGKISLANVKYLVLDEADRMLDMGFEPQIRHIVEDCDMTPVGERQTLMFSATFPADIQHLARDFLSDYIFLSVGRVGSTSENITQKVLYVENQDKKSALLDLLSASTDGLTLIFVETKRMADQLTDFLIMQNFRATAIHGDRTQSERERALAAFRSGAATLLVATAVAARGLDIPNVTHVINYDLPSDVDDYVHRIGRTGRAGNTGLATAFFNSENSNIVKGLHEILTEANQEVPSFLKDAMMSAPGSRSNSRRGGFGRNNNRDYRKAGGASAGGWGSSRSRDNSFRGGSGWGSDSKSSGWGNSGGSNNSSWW

[3] = molecular target: T1, TCTP; assay: EMSA; 500 nM TCTP, 50 nM RNA; ATP or AMP-PNP; EMSA: RNA01 at pH 7.5, 6% native PAGE at 4 C; let-7c-5p 50 nM, proteins preincubated 20 min then 25 min on ice, ATP or AMP-PNP (5 mM), NativePAGE 3-12% Bis-Tris; details: protein: recombinant; single strand
[4] = molecular target: DDX3-WT (human, UniProt O00571 1-662); assay: EMSA; 300 nM DDX3, 50 nM RNA; ATP or AMP-PNP (nucleotide not specified for outcome); EMSA: RNA01 at pH 7.5, 6% native PAGE at 4 C; let-7c-5p 50 nM, proteins preincubated 20 min then 25 min on ice, ATP or AMP-PNP (5 mM), NativePAGE 3-12% Bis-Tris; details: protein: recombinant; single strand
Sequence of DDX3-WT (O00571 whole entry): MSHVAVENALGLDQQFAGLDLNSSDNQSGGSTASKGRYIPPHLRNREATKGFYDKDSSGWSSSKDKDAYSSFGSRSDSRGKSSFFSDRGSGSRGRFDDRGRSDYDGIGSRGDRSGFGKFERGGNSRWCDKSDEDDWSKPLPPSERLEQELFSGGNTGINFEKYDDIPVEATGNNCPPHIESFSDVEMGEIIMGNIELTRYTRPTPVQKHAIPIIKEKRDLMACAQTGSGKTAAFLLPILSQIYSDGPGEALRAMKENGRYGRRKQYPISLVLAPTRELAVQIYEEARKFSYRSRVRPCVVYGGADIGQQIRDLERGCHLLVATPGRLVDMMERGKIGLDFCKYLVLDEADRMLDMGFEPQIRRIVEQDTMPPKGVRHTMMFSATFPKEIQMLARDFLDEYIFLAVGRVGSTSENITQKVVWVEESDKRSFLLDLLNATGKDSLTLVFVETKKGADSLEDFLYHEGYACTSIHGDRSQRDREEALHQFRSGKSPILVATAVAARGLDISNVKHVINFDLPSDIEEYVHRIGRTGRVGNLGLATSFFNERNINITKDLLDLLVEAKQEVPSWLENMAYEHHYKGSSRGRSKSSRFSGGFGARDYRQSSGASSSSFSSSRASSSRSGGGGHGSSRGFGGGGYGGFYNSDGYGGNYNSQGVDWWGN

| Binder | binding result [1] | binding result [2] | binding result [3] | binding result [4] |
| --- | --- | --- | --- | --- |
| B1 | no binding | binds |  |  |
| B2 |  |  | no binding | binds |
